Measured values reported in patent publication US20250144229A1, “CONJUGATE OF ANTIBODY-ERIBULIN OR DERIVATIVE THEREOF, INTERMEDIATE THEREOF, PREPARATION METHOD THEREFOR, PHARMACEUTICAL COMPOSITION THEREOF AND USE THEREOF” (MEDLINK THERAPEUTICS (SUZHOU) CO., LTD., priority 2022, published 2025).
Where “and” joins values, the source holds several entries; their conditions need not be identical. Equal entries are not always repeated. Structures can show the parent of a compound that is named as a salt. Where two headings read alike, the source gives them in different places. Each block holds one molecule with its values, some of them ahead of it.

Legend:
[1] = cited from earlier work
[2] = target: T1, human B7H3-4IgG-His protein (Homo sapiens, UniProt Q5ZPR3); assay: ELISA protein affinity assay of anti-B7H3 antibody, human protein; format: binding; conditions: coated protein
T1 construct: amino acids at positions 27 to 461 (Uniport protein No. Q5ZPR3-1) of human 4Ig B7H3; 6xHis (C); made in house; host or cells: HEK293F (transient, PTT5 vector)
T1 sequence (Q5ZPR3 27-461): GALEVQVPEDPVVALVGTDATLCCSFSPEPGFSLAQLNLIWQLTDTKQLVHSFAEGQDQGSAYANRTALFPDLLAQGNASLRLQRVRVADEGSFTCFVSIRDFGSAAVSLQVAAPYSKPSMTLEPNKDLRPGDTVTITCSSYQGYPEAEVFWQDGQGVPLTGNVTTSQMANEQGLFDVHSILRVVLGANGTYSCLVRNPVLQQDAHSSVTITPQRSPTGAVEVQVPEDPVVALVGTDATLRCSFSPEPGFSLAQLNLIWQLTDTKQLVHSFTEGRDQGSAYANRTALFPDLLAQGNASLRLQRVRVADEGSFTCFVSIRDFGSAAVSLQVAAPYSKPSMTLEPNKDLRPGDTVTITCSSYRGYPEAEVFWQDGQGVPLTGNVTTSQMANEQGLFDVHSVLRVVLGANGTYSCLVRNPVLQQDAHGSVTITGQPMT
Protocol: The plate was washed five times with PBST. […] The absorbance was measured at 450 nm.

MCF-7 tumor cells = assay: Cell affinity assay of anti-B7H3 antibody by FACS, MCF-7; format: binding; conditions: flow cytometry
Protocol: (§1) B7H3 protein is highly expressed in a variety of solid tumor cells. The affinity of B7H3 full human antibody to tumor cells was tested by FACS. Specific experimental procedures: MCF-7 breast cancer cells, A549 human non-small cell lung cancer cells, and PC3 human prostate cancer cells grown to logarithmic phase were digested by trypsin, and resuspended to 5*10^5 cells/mL in PBS buffer containing 2% BSA. 100 μL of cell suspension was added to a 96-well plate. […] 100 μL of antibody suspension was then added into the 96-well plate and mixed homogeneously. The plate was incubated at 4° C. for 1 hour, washed twice with pre-cooled PBS at 300 μL/well each time, and centrifuged at 500 g for 5 minutes. 1:50 fluorescent secondary antibody APC anti-human IgG or PE anti-human IgG (purchased from Biolegend) was added at 100 μL/well and mixed homogeneously. The plate was incubated at 4° C. for 0.5 hours, washed twice with pre-cooled PBS at 300 μL/well each time, centrifuged at 500 g for 5 minutes, and resuspended in 500 μL of PBS. The average fluorescence signal value was measured by Beckman flow cytometer. The EC50 value was calculated from the average fluorescence signal value.

A549 tumor cells = assay: Cell affinity assay of anti-B7H3 antibody by FACS, A549; format: binding, human; conditions: flow cytometry; middle B7H3-expressing cells
Protocol: as §1

PC-3 tumor cells = assay: Cell affinity assay of anti-B7H3 antibody by FACS, PC-3; format: binding, human; conditions: flow cytometry
Protocol: as §1

SW480 = assay: Inhibitory activity of ADC on cell viability in vitro (CCK8), SW480; format: cell-based; conditions: Homo sapiens, SW480, 168 h, 7 days incubation
Protocol: (§2) HT29, NCI-H358 (HT29 and NCI-H358 are B7H3 positive tumor cells), SW480, A375, A549, and Calu-3 (Calu-3 is B7H3 negative tumor cells) tumor cells were digested by trypsin using conventional methods. Cells in the tube were collected and counted, then resuspended in the corresponding assay medium (containing 2% FBS), and added to a 96-well plate at 2000 to 5000 cells/well. 100 μL of ADC diluted in 2% FBS medium was added to the 96-well plate, with 3-fold serial dilution at an initial concentration of 150 µg/mL (12 concentration gradients). The plate was incubated at 37° C. under 5% CO2 for 7 days. 20 μL of CCK8 reagent was then added to each well, and the reaction was carried out for 2 to 6 hours. The plate was read on a microplate reader (detection wavelength: 450 nm). The test results are shown in Table 3-1, Table 3-2, and FIGS. 7A to 7E.

A375 = assay: Inhibitory activity of ADC on cell viability in vitro (CCK8), A375; format: cell-based; conditions: Homo sapiens, A-375, 168 h, 7 days incubation
Protocol: as §2

A549 = assay: Inhibitory activity of ADC on cell viability in vitro (CCK8), A549; format: cell-based; conditions: Homo sapiens, A549, 168 h, 7 days incubation
Protocol: as §2

HT29 = assay: Inhibitory activity of ADC on cell viability in vitro (CCK8), HT29; format: cell-based; conditions: Homo sapiens, HT-29, 168 h, 7 days incubation, B7H3 positive tumor cells
Protocol: as §2

[3] = target: B7H3 protein on human tumor cells (MCF-7, A549, PC-3, HT29) (human) (UniProt Q5ZPR3); assay: flow cytometry on A549 tumor cells
[4] = target: B7H3 protein on human tumor cells (MCF-7, A549, PC-3, HT29) (human) (UniProt Q5ZPR3); assay: flow cytometry on A549 tumor cells; remark: listed apart in the source
[5] = target: B7H3 protein on human tumor cells (MCF-7, A549, PC-3, HT29) (human) (UniProt Q5ZPR3); assay: flow cytometry on PC-3 tumor cells
[6] = target: B7H3 protein on human tumor cells (MCF-7, A549, PC-3, HT29) (human) (UniProt Q5ZPR3); assay: flow cytometry on MCF-7 tumor cells
[7] = target: B7H3 protein on human tumor cells (MCF-7, A549, PC-3, HT29) (human) (UniProt Q5ZPR3); assay: flow cytometry on MCF-7 tumor cells; remark: listed apart in the source
[8] = target: T2, human B7H3-4IgG-His (human) (UniProt Q5ZPR3); assay: ELISA, antigen coated on the plate, anti-human Fc-HRP detection
T2 sequence: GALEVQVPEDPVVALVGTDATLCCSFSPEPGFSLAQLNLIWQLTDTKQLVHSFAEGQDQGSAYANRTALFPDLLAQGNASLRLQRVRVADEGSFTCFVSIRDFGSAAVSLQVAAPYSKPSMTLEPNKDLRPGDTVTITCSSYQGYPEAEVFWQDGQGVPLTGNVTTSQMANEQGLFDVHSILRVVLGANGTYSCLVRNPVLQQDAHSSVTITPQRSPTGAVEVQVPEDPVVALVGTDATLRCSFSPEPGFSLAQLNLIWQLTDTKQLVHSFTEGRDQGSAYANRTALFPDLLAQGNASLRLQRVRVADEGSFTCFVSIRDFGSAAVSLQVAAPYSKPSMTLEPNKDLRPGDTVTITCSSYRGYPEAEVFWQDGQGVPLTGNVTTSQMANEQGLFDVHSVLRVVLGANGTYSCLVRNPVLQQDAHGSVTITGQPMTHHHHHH

[9] = target: monkey B7H3-4IgG-His (monkey); assay: as above
[10] = target: T2, human B7H3-4IgG-His (human); assay: as above; remark: listed apart in the source
[11] = target: monkey B7H3-4IgG-His (monkey); assay: as above; remark: listed apart in the source

Chain of B7H3 protein on human tumor cells (MCF-7, A549, PC-3, HT29) (human) (Q5ZPR3 29-534): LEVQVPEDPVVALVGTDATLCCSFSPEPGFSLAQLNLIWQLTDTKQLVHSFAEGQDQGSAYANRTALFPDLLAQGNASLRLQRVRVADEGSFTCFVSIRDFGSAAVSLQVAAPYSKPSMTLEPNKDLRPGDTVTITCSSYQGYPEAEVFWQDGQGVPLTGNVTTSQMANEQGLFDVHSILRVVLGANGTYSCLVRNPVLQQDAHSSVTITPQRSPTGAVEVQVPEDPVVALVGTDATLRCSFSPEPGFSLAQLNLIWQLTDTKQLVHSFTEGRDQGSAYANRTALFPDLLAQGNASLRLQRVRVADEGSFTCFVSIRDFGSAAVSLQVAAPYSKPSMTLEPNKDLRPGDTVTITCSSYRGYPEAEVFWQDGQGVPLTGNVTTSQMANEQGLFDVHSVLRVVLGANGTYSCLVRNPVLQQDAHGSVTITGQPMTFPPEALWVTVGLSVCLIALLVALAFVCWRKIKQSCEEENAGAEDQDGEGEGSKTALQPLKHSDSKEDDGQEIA

Molecule: C=C1C[C@@H]2CC[C@@]34C[C@H]5O[C@H]6[C@@H](O3)[C@H]3O[C@H](CC[C@@H]3O[C@H]6[C@H]5O4)CC(=O)C[C@@H]3[C@@H](OC)[C@@H](C[C@H](O)CN)O[C@H]3C[C@H]3O[C@@H](CC[C@@H]1O2)C[C@@H](C)C3=C [Eribulin mesylate]
maximum tolerated dose (MTD) ([1]; intravenous infusion on day 1, 8 and 15 of a 28-day cycle, patients): 1.4 mg/m^2
grade 3-4 adverse events: neutropenia ([1]; patients treated with eribulin mesylate): 64%

EC50 [2]: 0.048 nM
EC50 (MCF-7 tumor cells; high B7H3-expressing cells): 1.71 nM and 1.36 nM
EC50 (A549 tumor cells): 1.86 nM and 1.05 nM
EC50 (PC-3 tumor cells; low B7H3-expressing cells): 0.618 nM
Molecule: B7H3-C1: anti-B7H3 antibody numbered M30-H1-L4 in CN103687945B
MCF-7 tumor cells Maximum MFI (MCF-7 tumor cells): 83992 and 63194
PC-3 tumor cells Maximum MFI (PC-3 tumor cells): 6436

Molecule: C=C1C[C@@H]2CC[C@@]34C[C@H]5O[C@H]6[C@@H](O3)[C@H]3O[C@H](CC[C@@H]3O[C@H]6[C@H]5O4)CC(=O)C[C@@H]3[C@@H](OC)[C@@H](C[C@H](O)CN)O[C@H]3C[C@H]3O[C@@H](CC[C@@H]1O2)C[C@@H](C)C3=C [Eribulin, eribulin]
IC50 (SW480): 1.38 nM
IC50 (A375): 1.14 nM
IC50 (A549): 0.31 nM
IC50 (HT29): 0.2 nM

EC50 [3]: 1.86 nM
Maximum MFI [3]: 8270
EC50 [4]: 1.05 nM
Maximum MFI [4]: 48000
EC50 [5]: 0.618 nM
Maximum MFI [5]: 6440
EC50 [6]: 1.71 nM
Maximum MFI [6]: 84000
EC50 [7]: 1.36 nM
Maximum MFI [7]: 63200
EC50 [8]: 0.048 nM
EC50 [9]: 0.167 nM
EC50 [10]: 0.0519 nM
EC50 [11]: 3.92 nM
B1: antibody B7H3-C1 (antibody, INN chains, looked up, V domains shown)
VH: QVQLVQSGAEVKKPGSSVKVSCKASGYTFTNYVMHWVRQAPGQGLEWMGYINPYNDDVKYNEKFKGRVTITADESTSTAYMELSSLRSEDTAVYYCARWGYYGSPLYYFDYWGQGTLVTVSS
VL: EIVLTQSPATLSLSPGERATLSCRASSRLIYMHWYQQKPGQAPRPLIYATSNLASGIPARFSGSGSGTDFTLTISSLEPEDFAVYYCQQWNSNPPTFGQGTKVEIK
